Results taken from patent publication CN106831988A (SHENZHEN INST OF ADV TECH CAS, dated 2017).

Molecular target: T1, PD-1蛋白 (PD-1抗原) (human, UniProt Q15116 25-167, limits assumed)
T1 construct: The construct is not described; also called A蛋白
Experiment: SPR, Bio-Rad ProteOn XPR36, antibody coupled to channel L6, PD-1 antigen as analyte

T1 sequence (Q15116 25-167 limits assumed): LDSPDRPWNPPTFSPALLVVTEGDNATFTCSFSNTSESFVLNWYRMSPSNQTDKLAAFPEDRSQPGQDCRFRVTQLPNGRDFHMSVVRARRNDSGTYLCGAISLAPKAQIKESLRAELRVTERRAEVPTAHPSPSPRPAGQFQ

Kd: 134 pM
koff: 2.94e-05 s⁻¹
kon: 220000 M⁻¹ s⁻¹
B1: 抗人PD-1的单克隆抗体2D1 (2D1株单克隆抗体) (antibody, V domains shown)
VH: QVQLQQSGDDLVKPGASVKLSCKASGYTFTSYWINWIKQRPGQGLEWIGRIAPGSGSTYYNEMFKGKATLTVDTSSSTAYIQLSSLSSEDSAVYFCARLGQYYAMDYWGQGTTLTVSS
VL: DIVMTQTPLSLPVSLGDQASISCRSSQSLVHSNGNTYLHWYLQKPGQSPKLLIYKVSNRFSGVPDRFSGSGSGTDFTLKISRVEAEDLGVYFCSQSTHVPYTFGGGTKLELKR
notes: Mouse monoclonal antibody from a Balb/c x SP2/0 hybridoma; It was purified from ascites, and hybridoma supernatant was used in flow cytometry; it was detected with anti-mouse IgG; also called 2D1-1
